In paper PMC3188359 (Biochemistry, 2000):
Read-outs that look alike come from different tables or passages of the source. One block for each molecule: values may come before it.

What was measured:
[1] = biological target: Bacillus stearothermophilus DnaB (replicative helicase) (Bacillus stearothermophilus NCA 1503) (UniProt Q9X4C9); assay: SEC
SEC [2] = biological target: the molecule itself; assay: SEC
SEC [3] = biological target: the molecule itself; assay: SEC; remark: listed apart in the source
SEC [4] = biological target: the molecule itself; assay: SEC; remark: listed apart in the source
[5] = biological target: T1, Bacillus stearothermophilus DnaB (replicative helicase) (Bacillus stearothermophilus NCA 1503, UniProt Q9X4C9 1-454); assay: SEC + AUC
T1 sequence (looked up): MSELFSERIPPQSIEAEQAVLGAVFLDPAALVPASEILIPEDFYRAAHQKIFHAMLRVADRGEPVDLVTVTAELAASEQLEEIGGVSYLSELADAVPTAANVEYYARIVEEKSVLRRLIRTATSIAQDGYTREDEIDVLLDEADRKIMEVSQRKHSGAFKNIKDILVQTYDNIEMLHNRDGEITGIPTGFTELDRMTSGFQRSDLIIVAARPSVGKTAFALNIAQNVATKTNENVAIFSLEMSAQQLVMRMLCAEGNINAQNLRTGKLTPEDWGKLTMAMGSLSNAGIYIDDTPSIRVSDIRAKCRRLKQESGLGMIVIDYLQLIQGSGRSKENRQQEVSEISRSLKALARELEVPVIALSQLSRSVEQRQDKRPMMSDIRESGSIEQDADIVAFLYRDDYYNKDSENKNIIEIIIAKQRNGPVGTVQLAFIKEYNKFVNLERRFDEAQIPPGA

stoichiometry N (P16 molecules per DnaB hexamer) [1]: 3
Molecule: P16, C-terminal 16 kDa fragment of B. stearothermophilus DnaG (from UniProt Q9X4D0 451-597) (domain or fragment)

B1: P33, C-terminal 33 kDa fragment of B. stearothermophilus DnaB (domain or fragment, Bacillus stearothermophilus NCA 1503, UniProt Q9X4C9 155-454, looked up)
chain: HSGAFKNIKDILVQTYDNIEMLHNRDGEITGIPTGFTELDRMTSGFQRSDLIIVAARPSVGKTAFALNIAQNVATKTNENVAIFSLEMSAQQLVMRMLCAEGNINAQNLRTGKLTPEDWGKLTMAMGSLSNAGIYIDDTPSIRVSDIRAKCRRLKQESGLGMIVIDYLQLIQGSGRSKENRQQEVSEISRSLKALARELEVPVIALSQLSRSVEQRQDKRPMMSDIRESGSIEQDADIVAFLYRDDYYNKDSENKNIIEIIIAKQRNGPVGTVQLAFIKEYNKFVNLERRFDEAQIPPGA
stoichiometry N (SEC [2]): 6
stoichiometry N (SEC [3]): 2

B2: P17, N-terminal 17 kDa fragment of B. stearothermophilus DnaB (domain or fragment, Bacillus stearothermophilus NCA 1503, UniProt Q9X4C9 1-154, looked up)
chain: MSELFSERIPPQSIEAEQAVLGAVFLDPAALVPASEILIPEDFYRAAHQKIFHAMLRVADRGEPVDLVTVTAELAASEQLEEIGGVSYLSELADAVPTAANVEYYARIVEEKSVLRRLIRTATSIAQDGYTREDEIDVLLDEADRKIMEVSQRK
stoichiometry N (SEC [4]): 2

stoichiometry N [5]: 3 DnaG molecules per DnaB hexamer
B3: Bacillus stearothermophilus DnaG (primase) (enzyme, Bacillus stearothermophilus NCA 1503, UniProt Q9X4D0 1-597, looked up)
chain: MGHRIPEETIEAIRRGVDIVDVIGEYVQLKRQGRNYFGLCPFHGEKTPSFSVSPEKQIFHCFGCGAGGNAFTFLMDIEGIPFVEAAKRLAAKAGVDLSVYELDVRGRDDGQTDEAKAMTEAHALLKRFYHHLLVHTKEGQAALDYLQARGWTKETIDRFEIGYAPDAPDAAAKLLESHSFSLPVMEKAGLLTKKEDGRYVGRFRNRIMFPIHDHRGETVGFSGRLLGEGHPKYVNSPETPVFRKGAILYHFHAARVPIRKRQEALLVEGFADVISAAQAGIDYAIATMGTSLTEEQARILRPCDTITICYDGDRAGIEAAWAAAEQLSALGCRVKVASLPNGLDPDEYIRVYGGERFAGEAGCRRPLVAFKMAYLRRGKNLQHEGERLRYIDEALREIGKLSSPVEQDYYLRQLAEEFSLSLSALHEQLSRSQRERTKPREAPDGETARPMLAKKLLPAFQNAERLLLAHMMRSRDVALVVQERIGGRFNIEEHRALAAYIYAFYEEGHEADPGALISRIPGELQPLASDVSLLLIADDVSEQELEDYIRHVLNRPKWLMLKVKEQEKTEAERRKDFLTAARIAKEMIEMKKMLSSS
